Columns and labels:
Test in all cases: PEPSCAN ELISA, looped peptide, antibody 10 µg/ml
[1] = molecular target: looped/cyclic peptide … (rabies virus strain ERA)
[2] = molecular target: looped/cyclic peptide … (rabies virus strain ERA); remark: listed apart in the source
[3] = molecular target: looped/cyclic peptide … (rabies virus strain ERA); remark: listed apart in the source
[4] = molecular target: looped/cyclic peptide … (rabies virus strain ERA); remark: listed apart in the source
[5] = molecular target: looped/cyclic peptide … (rabies virus strain ERA); remark: listed apart in the source
[6] = molecular target: looped/cyclic peptide … (rabies virus strain ERA); remark: listed apart in the source
[7] = molecular target: looped/cyclic peptide … (rabies virus strain ERA); remark: listed apart in the source
[8] = molecular target: looped/cyclic peptide … (rabies virus strain ERA); remark: listed apart in the source
[9] = molecular target: looped/cyclic peptide … (rabies virus strain ERA); remark: listed apart in the source
[10] = molecular target: looped/cyclic peptide … (rabies virus strain ERA); remark: listed apart in the source
[11] = molecular target: looped/cyclic peptide … (rabies virus strain ERA); remark: listed apart in the source
[12] = molecular target: looped/cyclic peptide … (rabies virus strain ERA); remark: listed apart in the source
[13] = molecular target: looped/cyclic peptide … (rabies virus strain ERA); remark: listed apart in the source
[14] = molecular target: looped/cyclic peptide … (rabies virus strain ERA); remark: listed apart in the source
[15] = molecular target: looped/cyclic peptide … (rabies virus strain ERA); remark: listed apart in the source
[16] = molecular target: looped/cyclic peptide … (rabies virus strain ERA); remark: listed apart in the source
[17] = molecular target: looped/cyclic peptide … (rabies virus strain ERA); remark: listed apart in the source
[18] = molecular target: looped/cyclic peptide … (rabies virus strain ERA); remark: listed apart in the source
[19] = molecular target: looped/cyclic peptide … (rabies virus strain ERA); remark: listed apart in the source
[20] = molecular target: looped/cyclic peptide … (rabies virus strain ERA); remark: listed apart in the source
[21] = molecular target: looped/cyclic peptide … (rabies virus strain ERA); remark: listed apart in the source
[22] = molecular target: looped/cyclic peptide … (rabies virus strain ERA); remark: listed apart in the source
[23] = molecular target: looped/cyclic peptide … (rabies virus strain ERA); remark: listed apart in the source
[24] = molecular target: looped/cyclic peptide … (rabies virus strain ERA); remark: listed apart in the source
[25] = molecular target: looped/cyclic peptide … (rabies virus strain ERA); remark: listed apart in the source
[26] = molecular target: looped/cyclic peptide … (rabies virus strain ERA); remark: listed apart in the source
[27] = molecular target: looped/cyclic peptide … (rabies virus strain ERA); remark: listed apart in the source
[28] = molecular target: looped/cyclic peptide … (rabies virus strain ERA); remark: listed apart in the source
[29] = molecular target: looped/cyclic peptide … (rabies virus strain ERA); remark: listed apart in the source
[30] = molecular target: looped/cyclic peptide … (rabies virus strain ERA); remark: listed apart in the source
[31] = molecular target: looped/cyclic peptide … (rabies virus strain ERA); remark: listed apart in the source
[32] = molecular target: looped/cyclic peptide … (rabies virus strain ERA); remark: listed apart in the source
[33] = molecular target: looped/cyclic peptide … (rabies virus strain ERA); remark: listed apart in the source
[34] = molecular target: looped/cyclic peptide … (rabies virus strain ERA); remark: listed apart in the source
[35] = molecular target: looped/cyclic peptide … (rabies virus strain ERA); remark: listed apart in the source
[36] = molecular target: looped/cyclic peptide … (rabies virus strain ERA); remark: listed apart in the source
[37] = molecular target: looped/cyclic peptide … (rabies virus strain ERA); remark: listed apart in the source
[38] = molecular target: looped/cyclic peptide … (rabies virus strain ERA); remark: listed apart in the source
[39] = molecular target: looped/cyclic peptide … (rabies virus strain ERA); remark: listed apart in the source
[40] = molecular target: looped/cyclic peptide … (rabies virus strain ERA); remark: listed apart in the source
[41] = molecular target: looped/cyclic peptide … (rabies virus strain ERA); remark: listed apart in the source
[42] = molecular target: looped/cyclic peptide … (rabies virus strain ERA); remark: listed apart in the source
[43] = molecular target: looped/cyclic peptide … (rabies virus strain ERA); remark: listed apart in the source
[44] = molecular target: looped/cyclic peptide … (rabies virus strain ERA); remark: listed apart in the source
[45] = molecular target: looped/cyclic peptide […] (rabies virus strain ERA)
[46] = molecular target: looped/cyclic peptide … (rabies virus strain ERA); remark: listed apart in the source
[47] = molecular target: looped/cyclic peptide … (rabies virus strain ERA); remark: listed apart in the source
[48] = molecular target: looped/cyclic peptide … (rabies virus strain ERA); remark: listed apart in the source
[49] = molecular target: looped/cyclic peptide … (rabies virus strain ERA); remark: listed apart in the source
[50] = molecular target: looped/cyclic peptide … (rabies virus strain ERA); remark: listed apart in the source
[51] = molecular target: looped/cyclic peptide … (rabies virus strain ERA); remark: listed apart in the source
[52] = molecular target: looped/cyclic peptide … (rabies virus strain ERA); remark: listed apart in the source
[53] = molecular target: looped/cyclic peptide … (rabies virus strain ERA); remark: listed apart in the source
[54] = molecular target: looped/cyclic peptide … (rabies virus strain ERA); remark: listed apart in the source
[55] = molecular target: looped/cyclic peptide … (rabies virus strain ERA); remark: listed apart in the source
[56] = molecular target: looped/cyclic peptide … (rabies virus strain ERA); remark: listed apart in the source
[57] = molecular target: looped/cyclic peptide … (rabies virus strain ERA); remark: listed apart in the source
[58] = molecular target: looped/cyclic peptide … (rabies virus strain ERA); remark: listed apart in the source
[59] = molecular target: looped/cyclic peptide … (rabies virus strain ERA); remark: listed apart in the source
[60] = molecular target: looped/cyclic peptide … (rabies virus strain ERA); remark: listed apart in the source
[61] = molecular target: looped/cyclic peptide … (rabies virus strain ERA); remark: listed apart in the source
[62] = molecular target: looped/cyclic peptide … (rabies virus strain ERA); remark: listed apart in the source
[63] = molecular target: looped/cyclic peptide … (rabies virus strain ERA); remark: listed apart in the source
[64] = molecular target: looped/cyclic peptide … (rabies virus strain ERA); remark: listed apart in the source
[65] = molecular target: looped/cyclic peptide … (rabies virus strain ERA); remark: listed apart in the source
[66] = molecular target: looped/cyclic peptide … (rabies virus strain ERA); remark: listed apart in the source
[67] = molecular target: looped/cyclic peptide … (rabies virus strain ERA); remark: listed apart in the source
[68] = molecular target: looped/cyclic peptide … (rabies virus strain ERA); remark: listed apart in the source
[69] = molecular target: looped/cyclic peptide … (rabies virus strain ERA); remark: listed apart in the source
[70] = molecular target: looped/cyclic peptide … (rabies virus strain ERA); remark: listed apart in the source
[71] = molecular target: looped/cyclic peptide … (rabies virus strain ERA); remark: listed apart in the source
[72] = molecular target: looped/cyclic peptide … (rabies virus strain ERA); remark: listed apart in the source
[73] = molecular target: looped/cyclic peptide … (rabies virus strain ERA); remark: listed apart in the source
[74] = molecular target: looped/cyclic peptide … (rabies virus strain ERA); remark: listed apart in the source
[75] = molecular target: looped/cyclic peptide … (rabies virus strain ERA); remark: listed apart in the source

B1: human monoclonal antibody CRJB (antibody, V domains shown)
VH: QITLKETGPTLVKPTQTLTLTCTFSGFSLSTSGVGVGWIRQPPGKALEWVTLIYWDDDKRYSPSLENRVTIRKDTSKNQVALTMTNMDPLDTGTYYCAHRQHISSFPWFDSWGQGTLVTVSS
VL: SYVLTQPPSVSVAPGKTARINCGGNNIEYRSVHWYQQKSGQAPVAVIYDNSDRPSGIPERFSGSKSGNTATLTISRVEAGDEADYYCQVWDISSDVVFGGGTKLTVLG
- OD value [1]: 50 OD
- OD value [2]: 79 OD
- OD value [3]: 71 OD
- OD value [4]: 86 OD
- OD value [5]: 64 OD
- OD value [6]: 85 OD
- OD value [7]: 92 OD
- OD value [8]: 77 OD
- OD value [9]: 72 OD
- OD value [10]: 69 OD
- OD value [11]: 73 OD
- OD value [12]: 90 OD
- OD value [13]: 101 OD
- OD value [14]: 62 OD
- OD value [15]: 72 OD
- OD value [16]: 46 OD
- OD value [17]: 72 OD
- OD value [18]: 70 OD
- OD value [19]: 74 OD
- OD value [20]: 68 OD
- OD value [21]: 62 OD
- OD value [22]: 89 OD
- OD value [23]: 55 OD
- OD value [24]: 45 OD
- OD value [25]: 90 OD
- OD value [26]: 99 OD
- OD value [27]: 72 OD
- OD value [28]: 92 OD
- OD value [29]: 75 OD
- OD value [30]: 102 OD
- OD value [31]: 93 OD
- OD value [32]: 93 OD
- OD value [33]: 104 OD
- OD value [34]: 84 OD
- OD value [35]: 100 OD
- OD value [36]: 64 OD
- OD value [37]: 63 OD
- OD value [38]: 69 OD
- OD value [39]: 49 OD
- OD value [40]: 78 OD
- OD value [41]: 82 OD
- OD value [42]: 78 OD
- OD value [43]: 92 OD
- OD value [44]: 71 OD
- OD value [45]: 71 OD
- OD value [46]: 76 OD
- OD value [47]: 74 OD
- OD value [48]: 71 OD
- OD value [49]: 73 OD
- OD value [50]: 68 OD
- OD value [51]: 78 OD
- OD value [52]: 88 OD
- OD value [53]: 33 OD
- OD value [54]: 90 OD
- OD value [55]: 92 OD
- OD value [56]: 77 OD
- OD value [57]: 77 OD
- OD value [58]: 86 OD
- OD value [59]: 60 OD
- OD value [60]: 111 OD
- OD value [61]: 75 OD
- OD value [62]: 96 OD
- OD value [63]: 69 OD
- OD value [64]: 91 OD
- OD value [65]: 83 OD
- OD value [66]: 85 OD
- OD value [67]: 107 OD
- OD value [68]: 85 OD
- OD value [69]: 69 OD
- OD value [70]: 65 OD
- OD value [71]: 92 OD
- OD value [72]: 93 OD
- OD value [73]: 98 OD
- OD value [74]: 83 OD
- OD value [75]: 83 OD
